We go through six compounds from paper PMC10143992, “Interkingdom Signaling of the Insect Pathogen Photorhabdus luminescens with Plants Via the LuxR solo SdiA” (Microorganisms, 2023).

For one data set, the target named is T1, SdiA (6His-SdiA) (Photorhabdus laumondii, UniProt Q7N9K5).
T1 construct: gene plu0320
Description: nanoDSF thermal shift (intrinsic Trp fluorescence […] nm). The class given is binding. To be noted: 10 nM ligand; 0.3 mg/mL SdiA; 1.5 °C/min; versus solvent control.

The subject of data set [1] is SdiA (LuxR solo, 6His-SdiA) (Photorhabdus luminescens DJC). Description: SPR. To be noted: SPR Biacore T200, SA chip, HBS-EP+ (10 mM HEPES pH 7.4, 150 mM NaCl, 3 mM EDTA, 0.005% Tween-20), SdiA 1.5625-200 nM, 30 uL/min, 1:1 fit, temperature not …. On the technique in general: Surface plasmon resonance follows binding to a sensor surface in real time, without labels.
The subject of data set [2] is T2, SdiA (LuxR solo, 6His-SdiA) (Photorhabdus luminescens DJC), ORF:60ed44fe.
T2 sequence: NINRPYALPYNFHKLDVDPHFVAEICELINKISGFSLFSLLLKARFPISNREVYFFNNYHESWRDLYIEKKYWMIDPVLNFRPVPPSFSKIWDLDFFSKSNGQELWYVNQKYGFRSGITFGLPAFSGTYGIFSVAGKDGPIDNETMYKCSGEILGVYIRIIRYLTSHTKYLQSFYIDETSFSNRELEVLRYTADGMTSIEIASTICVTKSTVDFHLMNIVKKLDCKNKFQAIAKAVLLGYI
Description: SPR. To be noted: SPR Biacore T200, SA chip, HBS-EP+ (10 mM HEPES pH 7.4, 150 mM NaCl, 3 mM EDTA, 0.005% Tween-20), SdiA 1.5625-200 nM, 30 uL/min, 1:1 fit; temperature not ….

T1 sequence (Q7N9K5 entry or part of it): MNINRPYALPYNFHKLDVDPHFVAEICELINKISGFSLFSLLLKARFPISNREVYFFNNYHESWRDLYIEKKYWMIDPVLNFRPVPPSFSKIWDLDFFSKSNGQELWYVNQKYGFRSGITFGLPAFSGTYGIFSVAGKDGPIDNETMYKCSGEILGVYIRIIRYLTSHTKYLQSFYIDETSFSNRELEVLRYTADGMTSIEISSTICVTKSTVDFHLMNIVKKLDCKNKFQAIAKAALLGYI

With `CCCC(=O)N[C@H]1CCOC1=O` [C4-AHL], the DTM on SdiA (6His-SdiA) was −3.9 °C. As a reminder, the Kd is the free concentration of one partner at which half of the binding sites on the other are occupied at equilibrium, for simple one-to-one binding. Low readings indicate tighter binding, high ones weaker binding. Consider PaidA promoter fragment, for which the equilibrium dissociation constant (Kd) in data set [1] (3.3% (v/v) plant root exudate (PRE), ka 8.2e4 /M/s, kd 1.1e-3 /s) was determined as 0.0133 µM; in data set [1] (no ligand, ka 3.9e5 /M/s, kd printed 1.7 x 103 /s (1.7e-3 from Kd)), 0.0044 µM. In turn, “GACACCTCTTTACATATTTAAACTATTTATTGGGAATCGAAAGGTTATTTTGCTTACTCATTATTATTCTAATAACTTTCTTTTTATATAATTAACTATTAAAGTTGAAACAGCTACTGGGATAAATCATAGTTTATATGGGAAAATTACTCATATATTTATTAGGTATTGCTTCATATAG (double strand) [PaidA promoter fragment]” had a dissociation constant Kd in data set [2] of 0.0044 µM. Regarding PsdiA promoter fragment, the Kd in data set [1] (3.3% (v/v) plant root exudate (PRE), ka 1.8e5 /M/s, kd 2.0e-2 /s) is 0.109 µM; in data set [1] (no ligand, ka 1.1e5 /M/s, kd 3.1e-3 /s), 0.0274 µM. `CCCCCCCCCCCC(=O)N[C@H]1CCOC1=O` [C12-AHL]: on SdiA (6His-SdiA), the DTM entry is “+1.6 °C”.

For “GTCATTATTCGCTGTTCACTCATCTTTTAATGGCACAATAAGCCCTGACTTTTTACTTTAATTACCCGCTTTAGATCGAGAGGGCTATGTTAGGGTGGCAGTCTAAAAATATGCCGTATATTACTTTGGGTTAATATGGCATTGAATGGCGTAGGTTATAGGGTGGTTTAACACGAGGTTTTT (double strand) [PfliE promoter fragment]”, the binding entry in data set [2] is “no binding”.
